The conditions of series [1]: rabbit, in vivo; cited from earlier work.
For series [2], the system named is NIH/Swiss mice. Description: OGTT DOA (oral glucose tolerance test duration of action). Type of series: in vivo, mouse. As to conditions: dosed 24 hours before OGTT, even at higher doses. The source says: Water and a standard pelleted mouse chow diet were available ad libitum, except as noted. […] Significant treatment effects were identified by ANOVA (p<0.05).

For series [3] the following is noted: mouse, in vivo; cited from earlier work.
The conditions of series [4]: human, in vivo; cited from earlier work.
The conditions of series [5]: rat, in vivo; cited from earlier work.
The test system of series [6] is CD3+ CD4+ T cells.
In series [7] the test system is IgG molecules present in normal human sera. Kind of series: Serum response analysis by ELISA (IgG binding to albumin binding polypeptides). The following applies: 126 sera positive for one or more albumin binding polypeptides; sera diluted 50 times. How it is done:
The percentage of human serum containing IgG, capable of binding to a set of albumin binding polypeptides as disclosed herein was analyzed by ELISA.
The plates were coated over night […] at 4° C. On the day of analysis, the plates were washed twice with tap water and blocked for 2 hours with 100 μl of phosphate buffered saline (PBS) containing 0.05% casein (PBSC). […] After incubation for two hours at room temperature (RT), the plates were washed in PBSC four times using an automated ELISA washer. […] 50 μl of the diluted sera was added per well according to the pre-made plate layout. Each serum sample was tested as a singlet. Positive and negative controls were included on each plate and for each albumin binding polypeptide. […] The plates were incubated for one hour at RT and subsequently washed four times in PBSC using an automated ELISA washer.
Background: ELISA stands for enzyme-linked immunosorbent assay.

Series [8] addresses T1, GLP-1 receptor (Rattus norvegicus, UniProt P32301).
T1 construct: functional activity was determined using cells that endogenously express GLP-1R; endogenous in cells; host or cells: rat thyroid carcinoma 6-23 (clone 6) cells (ATCC CRL-1607)
T1 sequence (P32301 22-463): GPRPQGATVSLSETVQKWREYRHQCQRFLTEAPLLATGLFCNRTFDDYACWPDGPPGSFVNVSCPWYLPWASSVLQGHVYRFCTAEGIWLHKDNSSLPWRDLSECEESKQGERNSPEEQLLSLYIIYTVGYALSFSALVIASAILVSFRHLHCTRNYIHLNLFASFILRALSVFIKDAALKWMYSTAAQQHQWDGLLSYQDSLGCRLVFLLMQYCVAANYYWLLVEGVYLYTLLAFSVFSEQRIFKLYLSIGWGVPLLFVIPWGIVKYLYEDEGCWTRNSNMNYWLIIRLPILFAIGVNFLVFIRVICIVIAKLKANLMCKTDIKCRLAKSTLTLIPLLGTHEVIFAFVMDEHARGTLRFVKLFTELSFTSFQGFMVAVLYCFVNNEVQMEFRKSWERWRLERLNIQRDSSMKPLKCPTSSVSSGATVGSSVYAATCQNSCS
Description: GLP-1 receptor functional assay (cAMP induction, HTRF) in rat thyroid carcinoma 6-23 (clone 6) cells. Type of series: cell-based. How it is done:
In another embodiment the cell-based assay is a homogeneous time-resolved fluorescence assay (HTRF®). HTRF® kits are commercially available from Cisbio International (Bedford, Mass.). […] See worldwideweb.htrf.com/products/gper/camp/, the disclosure of which is incorporated by reference herein. […] The HTRF® standards and calibrations are prepared following the instructions in the kit. Assays may be performed with or without the presence of albumin.
See for example United States Patent Application Publication US20110097751A1, incorporated by reference for the assay method. In this example, functional activity was determined using cells that endogenously express GLP-1R, and cAMP induction is detected as a measure of exendin activity.
The data above was determined in the presence of about 0.1% bovine serum albumin (BSA).

Like-named read-outs stand apart in the source and are kept apart here.

Broadly, the half-life is how long it takes for the measured level to halve.

Consider “rabbit serum albumin: rabbit serum albumin”, for which, in series [1], the half-life result was “about 5 days”.

On to “GSLAEAKEAANAELDSYGVSDFYKRLIDKAKTVEGVEALKDAILAALP [PEP07986]”, for which, in series [2], the “activity in OGTT DOA when dosed at t-24 hours” value is “inactive”.

In the case of albumin, the half-life in series [3] was 24 h; in series [4] it was 456 h; in series [1], 134 h; in series [5], 45.6 h.

For the molecule `CC[C@H](C)[C@H](NC(=O)[C@H](C)NC(=O)[C@H](CC(=O)O)NC(=O)[C@H](CCCCN)NC(=O)[C@H](CC(C)C)NC(=O)[C@H](C)NC(=O)[C@H](CCC(=O)O)NC(=O)[C@@H](NC(=O)CNC(=O)[C@H](CCC(=O)O)NC(=O)[C@@H](NC(=O)[C@@H](NC(=O)[C@H](CCCCN)NC(=O)[C@H](C)NC(=O)[C@H](CCCCN)NC(=O)[C@H](CC(=O)O)NC(=O)[C@@H](NC(=O)[C@H](CC(C)C)NC(=O)[C@H](CCCNC(=N)N)NC(=O)[C@H](CCCCN)NC(=O)[C@H](Cc1ccc(O)cc1)NC(=O)[C@H](Cc1ccccc1)NC(=O)[C@H](CC(=O)O)NC(=O)[C@H](CO)NC(=O)[C@@H](NC(=O)CNC(=O)[C@H](Cc1ccc(O)cc1)NC(=O)[C@H](CSC1CC(=O)N(CCNC(=O)CN2CCN(CC(=O)O)CCN(CC(=O)O)CCN(CC(=O)O)CC2)C1=O)NC(=O)[C@H](CC(=O)O)NC(=O)[C@H](CC(C)C)NC(=O)[C@H](CCC(=O)O)NC(=O)[C@H](C)NC(=O)[C@H](CC(N)=O)NC(=O)[C@H](C)NC(=O)[C@H](C)NC(=O)[C@H](CCC(=O)O)NC(=O)[C@H](CCCCN)NC(=O)[C@H](C)NC(=O)[C@H](CO)NC(=O)[C@H](C)NC(=O)[C@H](CC(C)C)NC(=O)CN)C(C)C)[C@@H](C)CC)[C@@H](C)O)C(C)C)C(C)C)C(=O)N[C@@H](CC(C)C)C(=O)N[C@@H](C)C(=O)N[C@@H](C)C(=O)N[C@@H](CC(C)C)C(=O)N1CCC[C@H]1C(=O)O` (some centres unmarked) [PEP07968], in series [6], the immunogenicity definition result is “non-immunogenic” and the “number of donors in which CD3+ CD4+ T cells proliferation was induced, compared to the albumin control” value is 1 donors. The “IgG binding reactivity (average OD-value, percentage of serum with IgG binding)” value in series [7] is “least reactivity”.

B1: HGEGTFTSDLSKQLEEEAVRLFIEWLKNTGGGGSASGSLAEAKEAANAELDSYGVSDFYKRLIDKAKTVEGVEALKDAILAALP (protein)
chain: HGEGTFTSDLSKQLEEEAVRLFIEWLKNTGGGGSASGSLAEAKEAANAELDSYGVSDFYKRLIDKAKTVEGVEALKDAILAALP
In the case of B1, the “activity in OGTT DOA when dosed at t-24 hours” value in series [2] is given as “did not display 24 duration”. For the same molecule, the “in vitro activity against the GLP-1 receptor” value in series [8] was “active in vitro”.

The record behind these values is patent publication US9382304B2, “Engineered polypeptides having enhanced duration of action with reduced immunogenicity” (priority 2011, dated 2016).
